Reference: EP4678181A1

Key:
[1] = target: T1, interleukin-2 beta receptor (SYMANSIS, #4122H) to which a human immunoglobulin Fc region was linked (UniProt P14784); experiment: SPR (Biacore T200), receptor-Fc captured by anti-human Ig antibody on CM5 chip; relative to analog 1 (aldesleukin)
T1 sequence (looked up): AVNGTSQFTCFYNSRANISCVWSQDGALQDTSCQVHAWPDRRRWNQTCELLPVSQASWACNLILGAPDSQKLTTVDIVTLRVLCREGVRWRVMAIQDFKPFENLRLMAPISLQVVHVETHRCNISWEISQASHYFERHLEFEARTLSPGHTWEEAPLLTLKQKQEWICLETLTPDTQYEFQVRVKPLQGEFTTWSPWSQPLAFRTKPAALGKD

[2] = target: interleukin-2 alpha receptor (SYMANSIS, #4102H) to which a human immunoglobulin Fc region was linked (UniProt P01589); experiment: as above
Chain of interleukin-2 alpha receptor (SYMANSIS, #4102H) to which a human immunoglobulin Fc region was linked (P01589 22-213 limits assumed): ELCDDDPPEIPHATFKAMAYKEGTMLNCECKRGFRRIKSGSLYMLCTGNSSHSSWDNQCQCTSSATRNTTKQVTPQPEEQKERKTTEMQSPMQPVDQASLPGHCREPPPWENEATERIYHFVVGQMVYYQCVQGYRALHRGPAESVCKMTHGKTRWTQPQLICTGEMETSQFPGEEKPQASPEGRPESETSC

[3] = target: T2, biotin-labeled human interleukin-2 receptor beta subunit (ACROBiosystems) (human) (UniProt P14784); experiment: SPR (Biacore T200), biotin-labeled receptor subunit on streptavidin chip; relative to aldesleukin
T2 sequence (biotin-labeled (site not stated), looked up): T1 sequence (looked up)

[4] = target: biotin-labeled human interleukin-2 receptor alpha subunit (ACROBiosystems) (human) (UniProt P01589); experiment: as above
Chain of biotin-labeled human interleukin-2 receptor alpha subunit (ACROBiosystems) (human) (P01589 22-213): as the sequence (P01589 22-213 limits assumed) above

Relative binding affinity (%) [1]: 100% | Relative binding affinity (%) [2]: 100% | Relative binding affinity (%) [3]: 100% | Relative binding affinity (%) [4]: 100%
Substance: interleukin-2 analog 1 (aldesleukin) (from UniProt P60568 22-153) (ligand)
